# According to PMC4569402:
# Target: wild-type influenza B virus nucleoprotein (BNP), B/panama/45/1990 (influenza B virus (B/panama/45/1990))
# Assay: negative-stain electron microscopy
substance,measurement,value
"wild-type influenza B virus nucleoprotein (BNP), B/panama/45/1990 (natural protein)",stoichiometry N,> 6
